Experimental findings from article PMC314469, “Protein Interaction Networks by Proteome Peptide Scanning” (PLoS Biology, 2004) are described below.

The labels stand for the following.
T1: amphyphisin SH3 (AMPH_HUMAN), P49418
T1 chain: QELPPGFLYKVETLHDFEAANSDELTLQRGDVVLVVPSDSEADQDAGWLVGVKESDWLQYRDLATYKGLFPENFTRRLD

For one test, the target named is endophilin SH3 (SH3G2_HUMAN), Q99962. As to the kind of experiment: SPOT array.
In turn, VLPPPPRPPQRRSR [BAC05199 62-76] came in with a normalised SPOT signal, Boehringer light units (BLU); mean over the file's lines of this peptide of 21900.

With VLTALRRPARSSWH [Q8WW71 300-313], the normalised SPOT signal, Boehringer light units (BLU); mean over the file's lines of this peptide stood at 395.

With VGTLPSKPPFRFGQ [O60318 21-35], the normalised SPOT signal, Boehringer light units (BLU); mean over the file's lines of this peptide came out at 498.

Consider VLPKFPRPVRTQEQ [Q92543 889-902], for which the normalised SPOT signal, Boehringer light units (BLU); mean over the file's lines of this peptide amounted to 303.

For VGKAFIRPFREHHI [Q9GZT0 109-122], the normalised SPOT signal, Boehringer light units (BLU); mean over the file's lines of this peptide turned out to be 390.

For the molecule VLALPGKPPFLTQL [P05771 392-406], the normalised SPOT signal, Boehringer light units (BLU); mean over the file's lines of this peptide came to 474.

VKPGLRRPPASPAL [Q05215 182-195] displayed a normalised SPOT signal, Boehringer light units (BLU); mean over the file's lines of this peptide of 34.9.

VLAEIPRPLKRRGS [Q9Y290 36-49] registered a normalised SPOT signal, Boehringer light units (BLU); mean over the file's lines of this peptide of 205.

For the molecule SGVRFHRPYRLLMH [Q9NT61 332-345], the normalised SPOT signal, Boehringer light units (BLU); mean over the file's lines of this peptide stood at 200.

VLDFPRRPPWSYEM [Q96CT5 125-139] showed a normalised SPOT signal, Boehringer light units (BLU); mean over the file's lines of this peptide of 397.

VHGDIFRPPRKGML [Q99805 351-364] registered a normalised SPOT signal, Boehringer light units (BLU); mean over the file's lines of this peptide of 97.6.

The molecule VLLKLRRPVVGSSE [Q14596 255-268] yielded a normalised SPOT signal, Boehringer light units (BLU); mean over the file's lines of this peptide of 233.

Take VMASLRRPKRIIIR [P78527 3728-3741]: the normalised SPOT signal, Boehringer light units (BLU); mean over the file's lines of this peptide was 177.

VLQHLRRPVALQLD [Q9HC29 785-798]: the normalised SPOT signal, Boehringer light units (BLU); mean over the file's lines of this peptide turned out to be 58.9.

In turn, VKLKIKRPYGRKSQ [O60281 820-833] yielded a normalised SPOT signal, Boehringer light units (BLU); mean over the file's lines of this peptide of 32.

As to VGTELLRPLRGLLS [Q9NX26 97-110], the normalised SPOT signal, Boehringer light units (BLU); mean over the file's lines of this peptide came to 112.

On to VNRPLVRPQKRLSS [Q9BWX5 222-235], for which the normalised SPOT signal, Boehringer light units (BLU); mean over the file's lines of this peptide came out at 6270.

Molecule VKKIPKKPPAPDPF [Q9UQN5 1344-1358] gave a normalised SPOT signal, Boehringer light units (BLU); mean over the file's lines of this peptide of 2740.

For VLGVLRRPLEAPPE [Q03169 136-149], the normalised SPOT signal, Boehringer light units (BLU); mean over the file's lines of this peptide is 5.5.

Take SKAYPKRPLLGLVL [Q9GZR7 380-393]: the normalised SPOT signal, Boehringer light units (BLU); mean over the file's lines of this peptide worked out at 385.

The molecule VNLKLRRPSFRDDI [O00467 301-314] registered a normalised SPOT signal, Boehringer light units (BLU); mean over the file's lines of this peptide of 60.4.

Consider VLAELPRPRRPPLQ [Q9NSY0 101-114], for which the normalised SPOT signal, Boehringer light units (BLU); mean over the file's lines of this peptide was 244.

Turning to VLLPPPRPTRKRSL [Q9P2L7 767-780], the normalised SPOT signal, Boehringer light units (BLU); mean over the file's lines of this peptide turned out to be 7360.

VNVVFRRPLRPADP [Q96FY0 68-81] registered a normalised SPOT signal, Boehringer light units (BLU); mean over the file's lines of this peptide of 266.

As for VKLLIRRPESFGPA [Q15413 2218-2231], the normalised SPOT signal, Boehringer light units (BLU); mean over the file's lines of this peptide worked out at 144.

In turn, VMQSLRRPSSSGSS [O60269 443-456] gave a normalised SPOT signal, Boehringer light units (BLU); mean over the file's lines of this peptide of 1190.

In turn, VPKPPPKPPSPPAP [P17405 180-194] displayed a normalised SPOT signal, Boehringer light units (BLU); mean over the file's lines of this peptide of 352.

Take VPGDPRRPYPTDLE [Q9NPJ6 168-181]: the normalised SPOT signal, Boehringer light units (BLU); mean over the file's lines of this peptide was determined as 39.7.

In the case of SISKPERPMKFLRE [P31321 38-51], the normalised SPOT signal, Boehringer light units (BLU); mean over the file's lines of this peptide amounted to 8910.

As for VMARLSRPERPDLV [Q9HCS7 3-16], the normalised SPOT signal, Boehringer light units (BLU); mean over the file's lines of this peptide was determined as 1160.

In turn, VHLKLRRPVTVPAG [Q9BT99 240-253] showed a normalised SPOT signal, Boehringer light units (BLU); mean over the file's lines of this peptide of 64.9.

VNRGPKRPKVLQRG [Q9UDR8 470-483] showed a normalised SPOT signal, Boehringer light units (BLU); mean over the file's lines of this peptide of 142.

VKRRPGRPRKSPLQ [Q9NR48 1846-1859]: the normalised SPOT signal, Boehringer light units (BLU); mean over the file's lines of this peptide is 107.

Molecule SKKGFRRPSEKNQH [P17010 781-794] registered a normalised SPOT signal, Boehringer light units (BLU); mean over the file's lines of this peptide of 32.

VKMQLRRPSDQEVS [Q04864 259-272] came in with a normalised SPOT signal, Boehringer light units (BLU); mean over the file's lines of this peptide of 382.

VKIPPKRPPRKHIV [Q8WVK0 107-121] showed a normalised SPOT signal, Boehringer light units (BLU); mean over the file's lines of this peptide of 14900.

In turn, VNEGPPKPPTELEP [AAH32298 448-462] showed a normalised SPOT signal, Boehringer light units (BLU); mean over the file's lines of this peptide of 3.4.

With VNIVPKKPPLLDRP [Q96NB9 30-44], the normalised SPOT signal, Boehringer light units (BLU); mean over the file's lines of this peptide came to 114.

The next test concerns the target T1, amphyphisin SH3 (AMPH_HUMAN), P49418. As to the kind of experiment: SPOT array.
Molecule VLPPPPRPPQRRSR [BAC05199 62-76] gave a normalised SPOT signal, Boehringer light units (BLU); mean over the file's lines of this peptide of 23100.

For VLTALRRPARSSWH [Q8WW71 300-313], the normalised SPOT signal, Boehringer light units (BLU); mean over the file's lines of this peptide is 1860.

In turn, VGTLPSKPPFRFGQ [O60318 21-35] had a normalised SPOT signal, Boehringer light units (BLU); mean over the file's lines of this peptide of 169.

The molecule VLPKFPRPVRTQEQ [Q92543 889-902] came in with a normalised SPOT signal, Boehringer light units (BLU); mean over the file's lines of this peptide of 475.

Take VGKAFIRPFREHHI [Q9GZT0 109-122]: the normalised SPOT signal, Boehringer light units (BLU); mean over the file's lines of this peptide was 11700.

Molecule VLALPGKPPFLTQL [P05771 392-406] returned a normalised SPOT signal, Boehringer light units (BLU); mean over the file's lines of this peptide of 57.3.

The molecule VKPGLRRPPASPAL [Q05215 182-195] displayed a normalised SPOT signal, Boehringer light units (BLU); mean over the file's lines of this peptide of 32.8.

In the case of VLAEIPRPLKRRGS [Q9Y290 36-49], the normalised SPOT signal, Boehringer light units (BLU); mean over the file's lines of this peptide was determined as 138.

In the case of SGVRFHRPYRLLMH [Q9NT61 332-345], the normalised SPOT signal, Boehringer light units (BLU); mean over the file's lines of this peptide came to 1490.

The molecule VLDFPRRPPWSYEM [Q96CT5 125-139] displayed a normalised SPOT signal, Boehringer light units (BLU); mean over the file's lines of this peptide of 53.9.

The molecule VHGDIFRPPRKGML [Q99805 351-364] came in with a normalised SPOT signal, Boehringer light units (BLU); mean over the file's lines of this peptide of 4010.

VLLKLRRPVVGSSE [Q14596 255-268] had a normalised SPOT signal, Boehringer light units (BLU); mean over the file's lines of this peptide of 32.8.

As to VMASLRRPKRIIIR [P78527 3728-3741], the normalised SPOT signal, Boehringer light units (BLU); mean over the file's lines of this peptide is 743.

On to VLQHLRRPVALQLD [Q9HC29 785-798], for which the normalised SPOT signal, Boehringer light units (BLU); mean over the file's lines of this peptide came out at 43.5.

VKLKIKRPYGRKSQ [O60281 820-833] yielded a normalised SPOT signal, Boehringer light units (BLU); mean over the file's lines of this peptide of 30.3.

As for VGTELLRPLRGLLS [Q9NX26 97-110], the normalised SPOT signal, Boehringer light units (BLU); mean over the file's lines of this peptide came out at 320.

As for VNRPLVRPQKRLSS [Q9BWX5 222-235], the normalised SPOT signal, Boehringer light units (BLU); mean over the file's lines of this peptide was found to be 253.

Regarding VKKIPKKPPAPDPF [Q9UQN5 1344-1358], the normalised SPOT signal, Boehringer light units (BLU); mean over the file's lines of this peptide came out at 56.8.

Molecule VLGVLRRPLEAPPE [Q03169 136-149] returned a normalised SPOT signal, Boehringer light units (BLU); mean over the file's lines of this peptide of 1.1.

SKAYPKRPLLGLVL [Q9GZR7 380-393]: the normalised SPOT signal, Boehringer light units (BLU); mean over the file's lines of this peptide came out at 12.5.

As for VNLKLRRPSFRDDI [O00467 301-314], the normalised SPOT signal, Boehringer light units (BLU); mean over the file's lines of this peptide stood at 60.6.

Molecule VLAELPRPRRPPLQ [Q9NSY0 101-114] returned a normalised SPOT signal, Boehringer light units (BLU); mean over the file's lines of this peptide of 596.

In the case of VLLPPPRPTRKRSL [Q9P2L7 767-780], the normalised SPOT signal, Boehringer light units (BLU); mean over the file's lines of this peptide is 8360.

The molecule VNVVFRRPLRPADP [Q96FY0 68-81] showed a normalised SPOT signal, Boehringer light units (BLU); mean over the file's lines of this peptide of 768.

Turning to VKLLIRRPESFGPA [Q15413 2218-2231], the normalised SPOT signal, Boehringer light units (BLU); mean over the file's lines of this peptide turned out to be 40.2.

For VMQSLRRPSSSGSS [O60269 443-456], the normalised SPOT signal, Boehringer light units (BLU); mean over the file's lines of this peptide stood at 45.5.

As to VPKPPPKPPSPPAP [P17405 180-194], the normalised SPOT signal, Boehringer light units (BLU); mean over the file's lines of this peptide is 71.9.

Take VPGDPRRPYPTDLE [Q9NPJ6 168-181]: the normalised SPOT signal, Boehringer light units (BLU); mean over the file's lines of this peptide worked out at 11.9.

SISKPERPMKFLRE [P31321 38-51] returned a normalised SPOT signal, Boehringer light units (BLU); mean over the file's lines of this peptide of 609.

As to VMARLSRPERPDLV [Q9HCS7 3-16], the normalised SPOT signal, Boehringer light units (BLU); mean over the file's lines of this peptide came to 1410.

For the molecule VHLKLRRPVTVPAG [Q9BT99 240-253], the normalised SPOT signal, Boehringer light units (BLU); mean over the file's lines of this peptide is 28.

With VNRGPKRPKVLQRG [Q9UDR8 470-483], the normalised SPOT signal, Boehringer light units (BLU); mean over the file's lines of this peptide turned out to be 9.

VKRRPGRPRKSPLQ [Q9NR48 1846-1859]: the normalised SPOT signal, Boehringer light units (BLU); mean over the file's lines of this peptide came to 167.

Take SKKGFRRPSEKNQH [P17010 781-794]: the normalised SPOT signal, Boehringer light units (BLU); mean over the file's lines of this peptide stood at 33.1.

Take VKMQLRRPSDQEVS [Q04864 259-272]: the normalised SPOT signal, Boehringer light units (BLU); mean over the file's lines of this peptide came to 81.1.

Molecule VKIPPKRPPRKHIV [Q8WVK0 107-121] came in with a normalised SPOT signal, Boehringer light units (BLU); mean over the file's lines of this peptide of 17500.

VNEGPPKPPTELEP [AAH32298 448-462] showed a normalised SPOT signal, Boehringer light units (BLU); mean over the file's lines of this peptide of 19.8.

The molecule VNIVPKKPPLLDRP [Q96NB9 30-44] showed a normalised SPOT signal, Boehringer light units (BLU); mean over the file's lines of this peptide of 34.8.
